Measured values from PMC1561584.

Biological target: LexA-UNC-119 (C. elegans) (UniProt Q10658)
Assay: two-hybrid; LexA baits and GAD preys in strain L40; data not shown

Chain of UniProt Q10658 (Q10658 whole entry): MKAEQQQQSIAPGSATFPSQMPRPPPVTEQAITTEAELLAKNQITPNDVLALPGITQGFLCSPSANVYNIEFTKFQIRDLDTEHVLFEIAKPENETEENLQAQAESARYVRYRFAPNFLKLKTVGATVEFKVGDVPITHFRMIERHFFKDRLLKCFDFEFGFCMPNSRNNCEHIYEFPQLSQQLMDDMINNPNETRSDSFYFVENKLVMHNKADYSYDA

ARL-3Δ17 (domain or fragment)
strength of interaction relative to ARL-3 FL (β-galactosidase activity) (fold of ARL-3 FL): 0.2
